{
  "source": "paper PMC5085234",
  "about": "“Monomeric gremlin is a novel vascular endothelial growth factor receptor-2 antagonist” (Oncotarget, 2016)",
  "binders": {"B1": {"name": "his-tagged gremlin^C141A mutant, rat (natural protein)", "chain": "KKKGSQGAIPPPDKAQHNDSEQTQSPPQPGSRTRGRGQGRGTAMPGEEVLESSQEALHVTERKYLKRDWCKTQPLKQTIHEEGCNSRTIINRFCYGQCNSFYIPRHIRKEEGSFQSASFCKPKKFTTMMVTLNCPELQPPTKKKRVTRVKQCRCISIDLD"}, "B2": {"name": "endogenous murine gremlin (natural protein, UniProt O70326 25-184, looked up)", "chain": "B1 chain with A117C", "notes": "gremlin, mouse, endogenous; immunoprecipitated with anti-gremlin antibody; Seen as 20-24 kDa monomers and 40-44 kDa dimers under non-reducing conditions; source: endogenous, lysates of healthy C57BL/6 murine organs; endogenous, conditioned medium of FGF2-T-MAE cells"}, "B3": {"name": "his-tagged wild-type gremlin (gremlin^WT), rat (natural protein, UniProt O35793 25-184, looked up)", "chain": "B1 chain with A117C", "notes": "secreted into the medium; covalent homodimer through Cys141; The IMAC-purified preparation holds monomer and dimer (used for non-reducing SDS-PAGE and SEC); the heparin 1.2 M NaCl fraction holds only the disulfide-linked dimer (98.5% purity) and is the form used in ELISA, SPR and cell assays; N-glycosylated and non-glycosylated forms are present; also called gremlin^WT dimer; dimeric gremlin^WT; …"}, "B4": {"name": "human BMP4 (ligand, UniProt P12644 293-408, looked up)", "chain": "SPKHHSQRARKKNKNCRRHSLYVDFSDVGWNDWIVAPPGYQAFYCHGDCPFPLADHLNSTNHAIVQTLVNSVNSSIPKACCVPTELSAISMLYLDEYDKVVLKNYQEMVVEGCGCR", "notes": "bone morphogenetic protein 4, human; the ELISA paragraph says only human BMP4; also called immobilized BMP4; source: bought: R&D"}},
  "key": {"[1]": {"target": "extracellular domain D1-7 of human VEGFR2 (ECD-VEGFR2) (human)", "assay": "SPR; BIAcore X; ECD-VEGFR2 immobilized on CM5 sensorchip (0.036-0.064 pmol/mm^2); gremlin 100 ng/mL to 4 ug/mL injected in HBS-EP; equilibrium responses fitted to the Langmuir equation for monovalent binding"}, "[2]": {"target": "the molecule itself", "assay": "non-reducing SDS-PAGE with Western blot; conditioned medium of FGF2-T-MAE cells (treated with increasing H2O2 for 1 hour, then 4 hours fresh medium) immunoprecipitated with anti-gremlin antibody, WB under non-reducing conditions"}, "[3]": {"target": "the molecule itself", "assay": "non-reducing SDS-PAGE with Western blot; recombinant his-tagged gremlin purified by IMAC (and heparin-affinity chromatography), SDS-PAGE without beta-mercaptoethanol, anti-gremlin WB, silver staining"}, "[4]": {"target": "B3", "assay": "ELISA; 96-well plates coated with 250 ng/mL of human BMP4, increasing concentrations of gremlin, bound gremlin detected with anti-gremlin antibody", "conditions": "both partners purified"}, "[5]": {"target": "T1, his-tagged gremlin^C141A mutant, rat (rat, UniProt O35793 25-184, C141A)", "T1 construct": "secreted into the medium; monomer; also called gremlin^C141A monomer; monomeric gremlin^C141A; not shown: His tag, C-terminal, kept", "T1 sequence (looked up)": "B1 chain", "assay": "ELISA; 96-well plates coated with 250 ng/mL of human BMP4, increasing concentrations of gremlin, bound gremlin detected with anti-gremlin antibody", "conditions": "both partners purified"}},
  "note": "Residue numbers refer to the chain shown, from its start. Numbers in names are those of the source.",
  "data": [
    {"binder": "B1", "values": [
      {"measurement": "Kd", "setting": "[1]", "value": 73, "unit": "nM"}
    ]},
    {"binder": "B2", "values": [
      {"measurement": "stoichiometry N", "setting": "[2]", "value": 2}
    ]},
    {"binder": "B3", "values": [
      {"measurement": "Kd", "setting": "[1]", "value": 73, "unit": "nM"},
      {"measurement": "stoichiometry N", "setting": "[3]", "value": 2}
    ]},
    {"binder": "B4", "values": [
      {"measurement": "binding result", "setting": "[4]", "value": "binds"},
      {"measurement": "binding result", "setting": "[5]", "value": "binds"}
    ]}
  ]
}
